Assay [1] has as its target T1, EGFR on cells (UniProt P00533 25-1210, limits assumed).
T1 construct: whole, on cells; also called HER14 cells (NIH3T3 transfected with EGFR); EGFR on LS174T and LoVo cells
As to the kind of experiment: flow cytometry, HER14 cells. Background: A flow cytometer gives signals particle by particle.

Assay [2] has as its target T2, hEGFR (Sino Biological, #10001-H08H) (human, UniProt P00533 25-645).
T2 construct: extracellular domain; Bought protein; also called hEGFR ECD; human EGFR protein
Kind of assay: SPR (Biacore T100), immobilized hEGFR, 1:1 model. Here is the method:
Thereto, hEGFR (Sino Biological, #10001-H08H) was immobilized onto a CM5 chip via amine coupling, using EDC and NHS chemistry. Purified Nanobodies were injected for 2 minutes at different concentrations (between 1.37 and 3000 nM) and allowed to dissociate for 15 min at a flow rate of 45 μl/min. In between sample injections, the surfaces were regenerated with 50 mM NaOH. HBS-EP+(Hepes buffer pH7.4) was used as running buffer.
(§1) The kinetic constants were calculated from the sensorgrams using the BIAEvaluation software (1:1 interaction). The affinity constants (KD) were calculated from resulting association and dissociation rate constants kon and koff, and are shown in Table C-29.
(In general: SPR reads the build-up and loss of mass on a sensor chip optically.)

The target of assay [3] is T1, EGFR on cells. Kind of assay: flow cytometry, LoVo cells. Details: Top: unit not given here.
The target in assay [4] is T1, EGFR on cells. As to the kind of experiment: flow cytometry, LS174T cells. Details: Top: unit not given here.
Assay [5] deals with T3, T cell receptor alpha/beta on purified primary human T cells (human, UniProt P01848 1-140; P01850 1-176).
T3 construct: whole, on cells; also called human primary T cells
T3 TCR alpha (looked up): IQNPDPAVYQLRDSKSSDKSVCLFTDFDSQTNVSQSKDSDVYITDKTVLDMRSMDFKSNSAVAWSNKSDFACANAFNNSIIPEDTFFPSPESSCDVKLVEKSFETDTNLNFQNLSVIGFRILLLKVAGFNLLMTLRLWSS
T3 TCR beta (looked up): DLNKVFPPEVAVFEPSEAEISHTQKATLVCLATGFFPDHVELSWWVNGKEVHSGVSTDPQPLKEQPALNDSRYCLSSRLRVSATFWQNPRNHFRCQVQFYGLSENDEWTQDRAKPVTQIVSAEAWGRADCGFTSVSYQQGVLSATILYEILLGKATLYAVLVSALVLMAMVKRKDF
As to the kind of experiment: flow cytometry on primary human T cells, MeanFI (PE).

The target of assay [6] is T4, CEACAM5 on cells (UniProt P06731 35-685).
T4 construct: whole, on cells; also called CEACAM5 on LS174T and LoVo cells
T4 sequence (looked up): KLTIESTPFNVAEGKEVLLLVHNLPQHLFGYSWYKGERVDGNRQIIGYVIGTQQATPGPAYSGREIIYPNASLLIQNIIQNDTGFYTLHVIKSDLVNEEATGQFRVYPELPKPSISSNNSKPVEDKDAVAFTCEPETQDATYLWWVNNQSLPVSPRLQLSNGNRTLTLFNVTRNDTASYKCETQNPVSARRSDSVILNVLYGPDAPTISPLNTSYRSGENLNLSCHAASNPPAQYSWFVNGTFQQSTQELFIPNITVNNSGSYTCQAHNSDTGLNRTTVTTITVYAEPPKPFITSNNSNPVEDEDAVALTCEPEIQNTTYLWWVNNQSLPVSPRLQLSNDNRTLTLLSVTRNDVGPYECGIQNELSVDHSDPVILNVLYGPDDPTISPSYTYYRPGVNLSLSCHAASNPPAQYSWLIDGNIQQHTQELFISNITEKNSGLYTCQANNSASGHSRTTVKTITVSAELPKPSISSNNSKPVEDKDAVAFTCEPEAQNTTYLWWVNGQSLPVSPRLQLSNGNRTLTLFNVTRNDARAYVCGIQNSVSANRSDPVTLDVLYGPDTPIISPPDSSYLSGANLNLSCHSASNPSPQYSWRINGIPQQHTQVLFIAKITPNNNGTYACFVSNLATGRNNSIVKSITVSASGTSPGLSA
As to the kind of experiment: flow cytometry, LoVo cells. Also on record: Top: unit not given here.

Assay [7] deals with T4, CEACAM5 on cells. Kind of assay: flow cytometry, LS174T cells. Also on record: Top: unit not given here.
The target in assay [8] is T5, hCEACAM-5 (R&D Systems, #4128-CM) (human, UniProt P06731 35-685).
T5 construct: Bought protein; also called human CEACAM5 protein
T5 sequence (looked up): T4 sequence (looked up)
Kind of assay: SPR (Biacore T100), immobilized hCEACAM-5, 1:1 model. Here is the method:
Thereto, hCEACAM-5 (R&D Systems, #4128-CM) was immobilized onto a CM5 chip via amine coupling, using EDC and NHS chemistry. Purified Nanobodies were injected for 2 minutes at different concentrations (between 0.31 and 2000 nM) and allowed to dissociate for 15 min at a flow rate of 45 μl/min. In between sample injections, the surfaces were regenerated with 10 mM Glycine pH 1.5. HBS-EP+(Hepes buffer pH7.4) was used as running buffer.
as §1

Assay [9] addresses T1, EGFR on cells. Kind of assay: flow cytometry on HER14 cells, MeanFI (PE).
The target in assay [10] is T4, CEACAM5 on cells. Kind of assay: cell-based or functional assay.
Assay [11] addresses T4, CEACAM5 on cells. Kind of assay: cell-based or functional assay. The source holds these as a separate data set.

Consider three molecules from US20190112392A1 (Ablynx, published 2019).

B1: EGFR038G07 (VHH)
VHH: EVQLVESGGGLVQAGGSLRLSCAASGRTFSSYVMGWFRQATGKEREFVATIAWDSGSTYYADSVKGRFTISRDNAKNTVHLQMNSLKPEDTAVYYCAASYNVYYNNYYYPISRDEYDYWGQGTLVTVSS
notes: Monovalent Nanobody; also called monovalent anti-EGFR Nanobody; EGFR monovalent Nanobody
In the assay with EGFR on cells [1], B1 had an EC50 of 1.8 nM and a Top of 166000. In assay [2], this molecule displayed a Kd of 0.763 nM, a koff of 0.000426 s⁻¹ and a kon of 558000 M⁻¹ s⁻¹. In the assay with EGFR on cells [3], the EC50 stood at 0.54 nM and the Top came to 52300. Besides, in the assay with EGFR on cells [4], the EC50 turned out to be 0.93 nM and the Top is 32200. Further, the binding result in assay [5] was “no binding (tested: 5e-7 M)”.

B2: NbCEA5 (VHH)
VHH: EVQLVESGGGSVQAGGSLRLSCAASGDTYGSYWMGWFRQAPGKEREGVAAINRGGGYTVYADSVKGRFTISRDTAKNTVYLQMNSLRPDDTADYYCAASGVLGGLHEDWFNYWGQGTLVTVSS
notes: Monovalent Nanobody; also called CEA#1; monovalent anti-CEA Nanobody
With B2, in the assay with CEACAM5 on cells [6], the EC50 came out at 1.2 nM and the Top came out at 11200. In the assay with CEACAM5 on cells [7], this molecule showed an EC50 of 0.59 nM and a Top of 43000. Besides, the binding result in assay [5] was “no binding (tested: 5e-7 M)”. Moreover, in assay [8], the Kd was 0.51 nM, the koff was 0.00051 s⁻¹ and the kon was 990000 M⁻¹ s⁻¹. In addition, in the assay with EGFR on cells [9], the binding result is on record as “no binding (tested: 5e-7 M)”.

B3: T017000109 (other)
chain: EVQLVESGGGSVQAGGSLRLSCAASGYTIGPYCMGWFRQAPGKEREGVAAINMGGGITYYADSVKGRFTISQDNAKNTVYLLMNSLEPEDTAIYYCAADSTIYASYYECGHGLSTGGYGYDSWGQGTLVTVSSGGGGSGGGGSGGGGSGGGGSGGGGSGGGGSGGGGSEVQLVESGGGSVQAGGSLRLSCAASGDTYGSYWMGWFRQAPGKEREGVAAINRGGGYTVYADSVKGRFTISRDTAKNTVYLQMNSLRPDDTADYYCAASGVLGGLHEDWFNYWGQGTLVTVSSGGGGSGGGGSGGGGSGGGGSGGGGSGGGGSGGGGSEVQLVESGGGLVQPGGSLRLSCVASGDVHKINFLGWYRQAPGKEREKVAHISIGDQTDYADSAKGRFTISRDESKNMVYLQMNSLKPEDTAVYFCRAFSRIYPYDYWGQGTLVTVSSGAADYKDHDGDYKDHDIDYKDDDDKGAAHHHHHH
notes: Irrelevant (anti-egg lysozyme) x CEACAM5 x TCR Nanobody construct; entry includes the FLAG3-HIS6 tag; also called cAbLys3(D1E,Q5V,A6E,Q108L)-35GS-NbCEA5-35GS-T0170056G05-FLAG3-HIS6
On to B3, for which, in the assay with CEACAM5 on cells [6], it took 36 nM to reach a half-maximal effect (EC50) and the Top was determined as 18500. In the assay with CEACAM5 on cells [7], this molecule showed an EC50 of 25 nM and a Top of 51000. Further, the binding result in the assay with EGFR on cells [9] was “no binding (tested: 5e-7 M)”. Also, in the assay with CEACAM5 on cells [10], the “IC50, xCELLigence human T cell mediated killing of LS174T cells, E:T 15, 30-40 h” value turned out to be 100 nM and the “IC50, xCELLigence human T cell mediated killing of LoVo cells, E:T 15, 30-40 h” value came to 9.3 nM. Further, in the assay with CEACAM5 on cells [11], the “IC50, xCELLigence human T cell mediated killing of LS174T cells, E:T 15, 50-60 h” value came out at 36 nM and the “IC50, xCELLigence human T cell mediated killing of LoVo cells, E:T 15, 50-60 h” value was found to be 2 nM.

Broadly, the EC50 is the midpoint of the concentration-response curve. For orientation: Kd means the concentration at which binding is half-saturated. One may read the koff as the rate constant with which the complex falls apart. As usually defined, the kon is the second-order rate constant of association.
